# Source: article PMC6718413, “Improving mass spectrometry analysis of protein structures with arginine-selective chemical cross-linkers” (Nature Communications, 2019)
# T1: Utp4 (UniProt Q06679 1-776)
# T1 construct: Utp4, subunit of UtpA; S. cerevisiae is surmised from PDB 5WLC and the printed residue numbers; also called His6-tagged Utp4; Upt4; source: E. coli BL21(DE3), purified (HisTrap, heparin)
# T1 sequence: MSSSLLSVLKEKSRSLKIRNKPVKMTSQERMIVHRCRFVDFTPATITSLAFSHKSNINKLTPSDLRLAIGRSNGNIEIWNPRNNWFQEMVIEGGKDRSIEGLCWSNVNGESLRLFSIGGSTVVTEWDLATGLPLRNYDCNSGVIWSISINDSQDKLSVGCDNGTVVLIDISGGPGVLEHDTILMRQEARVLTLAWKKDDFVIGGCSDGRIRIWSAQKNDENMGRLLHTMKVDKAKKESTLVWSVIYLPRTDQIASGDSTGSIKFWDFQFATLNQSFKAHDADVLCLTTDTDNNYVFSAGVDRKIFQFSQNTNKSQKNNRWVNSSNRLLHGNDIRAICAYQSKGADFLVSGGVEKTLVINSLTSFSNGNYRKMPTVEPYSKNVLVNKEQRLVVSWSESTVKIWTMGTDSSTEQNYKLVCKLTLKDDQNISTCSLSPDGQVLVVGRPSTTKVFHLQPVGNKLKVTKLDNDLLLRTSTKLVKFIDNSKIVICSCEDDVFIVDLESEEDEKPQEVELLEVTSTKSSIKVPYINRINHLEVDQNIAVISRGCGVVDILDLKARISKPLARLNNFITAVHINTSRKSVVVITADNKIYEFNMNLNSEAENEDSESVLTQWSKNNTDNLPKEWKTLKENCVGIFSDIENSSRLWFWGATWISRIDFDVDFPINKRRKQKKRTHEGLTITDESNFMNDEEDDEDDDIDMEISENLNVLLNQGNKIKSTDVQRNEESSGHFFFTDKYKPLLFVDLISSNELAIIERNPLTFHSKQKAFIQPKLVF
# B1: Utp5–Utp15 CTD complex (complex)
# chain 1: TTGTVTVILSQALQSNDHSLLETVLNNRDERVIRDTIFRLKPALAVILLERLAERIARQTHRQGPLNVWVKWCLIIHGGYLVSIPNLMSTLSSLHSTLKRRSDLLPRLLALDARLDCTINKFKTLNYEAGDIHSSEPVVEEDEDDVEYNEELDDAGLIE
# chain 2: RSQRRMRAFERNINQFKWSEALDNAFVPGMAKELTLTVLQELRKRGKVRVALYGRDESTLEPLLNWCLKGIEDVRSASIVADWVAVVLELYGNTLESSPVLQELMIDLKTKVRHEIHKSKEAQRIEGMLQLLTS
# notes: Utp5 residues 433-591, as m14; Utp15 residues 380-513, as m15; This complex was formed before it was mixed with His6-Utp4
# B2: CTD of Utp15 (residue 380-513) (domain or fragment, UniProt Q04305 380-513, looked up)
# chain: B1 chain 2
# notes: Utp15, subunit of UtpA, residues 380-513; The tags were cleaved with Ulp1; also called Utp15 CTD
# B3: C-terminal domain (CTD) of Utp5 (residue 433-591) (domain or fragment, UniProt Q04177 433-591, looked up)
# chain: B1 chain 1
# notes: Utp5, subunit of UtpA, residues 433-591; The tags were cleaved with Ulp1; also called Utp5 CTD
# B4: Utp8–Utp9 CTD complex (complex)
# chain 1: DYPKTLTFLLTHPLFPLSRTRNLLSLLRDQPRLFKQAIVTCPNLPLNELLEELFSIRNRELLLDISFRILQDFTRDSIKQEMKKLSKLDVQNFIEFITSGGEDSSPECFNPSQSTQLFQLLSLVLDSIGLFSLEGALLENLTLYIDKQVEIAERNTELWNLIDTKGFQHGFASSTFDNGTSQKRALPTYTMEYLDI
# chain 2: QPEVQHEKKETETKINKKVSKSDQVEIANILSSHLEANSTEILDDLMSGSWTEPEIKKFILTKINTVDHLSKIFLTISKSITQNPWNEENLLPLWLKWLLTLKSGELNSIKDKHTKKNCKHLKSALRSSEEILPVLLGIQGRLEMLRRQAKLREDLAQLSMQEGEDDEIEVIEHSNVISNPLQDQASPVEKLEPDSIVYANGESDEFVD
# notes: Utp9 residues 361-569, as m17; This complex was formed before it was mixed with His6-Utp4
# Columns and labels:
# Utp4 [1] = target: T1, Utp4; assay: co-purification; purified Utp5–Utp15 CTD complex, Utp8–Utp9 CTD complex and His6-tagged Utp4 mixed; HisTrap and gel filtration; conditions: both partners purified
# Utp4 [2] = target: T1, Utp4; assay: cross-linking; UtpA sub-complex (0.5 μg/μL) with 0.5 mM BS^3 at RT for 45 min, quenched with 20 mM NH4HCO3; LC-MS/MS; conditions: both partners purified
Binder,binding result (Utp4 [1]),binding result (Utp4 [2])
B1,binds,
B2,,binds
B3,,binds
B4,binds,
